Bridges are numbered along the chain shown (N, C = ends). Where no end group is shown, it is not given here.
T1: CKII substrate peptide RRREEETEEE (optimized consensus domain for CKII phosphorylation)
T1 peptide: RRREEETEEE


Target: T1, CKII substrate peptide RRREEETEEE …
Test: cell-based or functional assay

Binder	inhibition of CKII phosphorylation of the substrate peptide (32P, cpm on filters)
CSVRQGPVQKC (disulfide 1-11 (inferred)) [cyclic peptide (a) CSVRQGPVQKC]	80%
CFQPLTPLCRC (disulfide 1-11) [cyclic peptide (j) CFQPLTPLCRC]	80%
CQSYHELLLQC (disulfide 1-11 (inferred)) [cyclic peptide (k) CQSYHELLLQC]	80%
CSSCQNSPALC (disulfide 1-11) [cyclic peptide (b) CSSCQNSPALC]	80%
CQIPQRTATRC (disulfide 1-11 (inferred)) [cyclic peptide (c) CQIPQRTATRC]	80%
CAKQRTDPGYC (disulfide 1-11 (inferred)) [cyclic peptide (d) CAKQRTDPGYC]	80%
CWMSPRHLGTC (disulfide 1-11 (inferred)) [cyclic peptide (e) CWMSPRHLGTC]	80%
CRNCTVIQFSC (disulfide 1-11) [cyclic peptide (f) CRNCTVIQFSC]	80%
CHYIAGTVQGC (disulfide 1-11 (inferred)) [cyclic peptide (g) CHYIAGTVQGC]	80%
CPLVSLRDHSC (disulfide 1-11 (inferred)) [cyclic peptide (h) CPLVSLRDHSC]	80%
CKQSYLHHLLC (disulfide 1-11 (inferred)) [cyclic peptide (i) CKQSYLHHLLC]	80%

From patent US20090005294A1 (CENTRO DE INGENIERIA GENETICA Y BIOTECNOLOGIA, published 2009)
